Among the data in article PMC12785156 are Kd values, retold here.

The assay has as its target T1, hydroxylated His-AtHPPD (under oxidative stress, H2O2) (Arabidopsis thaliana), P93836.
T1 chain: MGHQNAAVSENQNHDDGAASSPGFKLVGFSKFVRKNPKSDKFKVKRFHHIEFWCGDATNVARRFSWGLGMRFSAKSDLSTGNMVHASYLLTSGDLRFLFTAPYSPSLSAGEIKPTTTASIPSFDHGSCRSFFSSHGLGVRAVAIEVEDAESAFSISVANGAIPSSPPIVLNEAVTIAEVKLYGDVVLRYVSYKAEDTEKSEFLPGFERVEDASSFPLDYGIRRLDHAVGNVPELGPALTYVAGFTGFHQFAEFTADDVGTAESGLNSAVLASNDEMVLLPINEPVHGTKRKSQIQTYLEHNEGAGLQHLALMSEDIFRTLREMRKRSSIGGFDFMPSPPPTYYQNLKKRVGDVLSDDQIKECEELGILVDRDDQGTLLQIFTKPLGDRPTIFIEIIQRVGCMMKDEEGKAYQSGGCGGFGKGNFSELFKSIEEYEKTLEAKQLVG
The assay can be described thus: MST; as the MST of untreated His-AtHPPD, but AtHPPD under oxidative stress (H2O2, concentration not stated); GST-PUB11-ARM serially diluted; 25°C; 20 mM HEPES pH 8.0, 100 mM NaCl.

B1: GST-PUB11-ARM (domain or fragment)
chain: QPAGYINGRTKNSGDMSVIRALVQRLSSRSTEDRRNAVSEIRSLSKRSTDNRILIAEAGAIPVLVNLLTSEDVATQENAITCVLNLSIYENNKELIMFAGAVTSIVQVLRAGTMEARENAAATLFSLSLADENKIIIGGSGAIPALVDLLENGTPRGKKDAATALFNLCIYHGNKGRAVRAGIVTALVKMLSDSTRHRMVDEALTILSVLANNQDAKSAIVKANTLPALIGILQTDQTRNRENAAAILLSLCKRDTEKLITIGRLGAVVPLMDLSKNGTERGKRKAISLLELLRKACQ
modifications: not checked
Turning to B1, the Kd stood at 2930 nM. This lies in the single-digit micromolar range.
